Laboratory results: US7071384B2, “Methods for commercial production of heterologous laccase in plant tissue and extraction of the laccase from plant seed” (Genencor International, Inc., priority 1997, dated 2006)

Columns and labels:
[1] = Isoelectric point determination; type: physicochemical; details: 10 is the highest pI that can be experimentally determined
[2] = Biotin inhibition of HABA binding to avidin; details: competitive binding of biotin and HABA to avidin
Text: The normalized absorbance value was obtained by subtracting from all the absorbance values, the value at which the absorbance change stopped.
In vivo, avidin exists as a homotetramer and its activity is to bind biotin to protect avian and reptilian eggs from pathogen invasion. Based upon this biotin-binding property, an analog of biotin, HABA, is utilized for the quantification of activity. Using the HABA binding assay, estimates of total avidin amounts in the fractions eluted from the affinity column were identical to estimates made by ELISA.

[3] = Effect of protease inhibitors on avidin stability in flaked maize kernel extract (biotin binding activity); type: physicochemical; details: control avidin dissolved in extraction buffer
Procedure: Dry maize kernels (12% MC; 500 g per batch) were first cracked using a roller mill (Ferrell-Ross, Oklahoma City, Okla.), then flaked to 0.3 mm thickness using Roskamp flaking rolls (Model K, Roskamp Mfg., Inc., Waterloo, Iowa.). The particle size distribution of flaked material was determined by sieving (see Table 1).
Twenty grams of flaked kernels were extracted with 200 ml of Tris-HCl pH 7.9 containing 500 mM NaCl, 1 mM CaCl2 with stirring for 30 min at ambient temperature. One extraction was performed in the absence of protease inhibitors (control) and one in the presence of a protease inhibitor mixture containing 10 mM 2-mercaptoethanol (2-ME), 5 mM ethylenediamine tetraacetic acid (EDTA), 0.1 mM phenylmethanesulfonyl fluoride (PMSF), and 0.2 mM Diazo-N-acetyl-N-Leu-MeO. EDTA and 2-ME were added at the beginning of the extraction, and PMSF and diazo-N-acetyl-N-Leu-MeO were added 15 minutes after the extraction began. The insoluble residue was separated by centrifugation at 20,500×g for 25 minutes at 0° C. The supernatant was filtered through four layers of cheesecloth. […] D: Residual avidin activity in cooked egg white assayed with improved sensitivity. J. Food Sci. 56:707 (1991].and for protein integrity on western blots. For a positive control, chicken egg white avidin (Sigma Chemical Co.) was dissolved in the extraction buffer and samples were taken as above for activity assays.

Substance: egg white: native chicken egg white avidin (Sigma Chemical Co.)
- pI [1]: 10
- Ki [2]: 3.2 µM
- avidin activity in extraction buffer ([3]; 0 h): 88.2 µg/mL
- avidin activity in extraction buffer ([3]; 1 h): 62.6 µg/mL
- avidin activity in extraction buffer ([3]; 3 h): 61.1 µg/mL
- avidin activity in extraction buffer ([3]; 6 h): 60.6 µg/mL
- avidin activity in extraction buffer ([3]; 22 h): 59.6 µg/mL
